Experimental findings from paper PMC5167558 (Biochemistry, 2015) are described below.

For this assay, the target named is GST-SPAK 63–390 (mouse, UniProt Q9Z1W9 63-390). Kind of assay: pull-down.

B1: His6-SPAK 63–390 (domain or fragment)
chain: not shown
On to B1, for which the binding result was “binds”.
